Residue numbers refer to the chain shown, from its start. Numbers in names are those of the source.
What was measured:
[1] = target: T1, Cynomolgus CTLA-4-Fc (cynomolgus monkey, UniProt G7PL88 37-162); experiment: kinetic binding analysis on CTLA4-hFc; method not stated
T1 construct: also called cynomolgus monkey CTLA4-hFc; not shown: human Fc (hFc)
T1 sequence: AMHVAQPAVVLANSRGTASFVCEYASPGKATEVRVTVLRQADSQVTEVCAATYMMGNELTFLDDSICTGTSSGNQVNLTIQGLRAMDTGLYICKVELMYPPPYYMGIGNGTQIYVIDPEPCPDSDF
Description: (§1) On-rate, off-rate and affinity were determined using human and cynomolgus monkey CTLA4-hFc (Table below).

[2] = target: T2, Human CTLA-4-Fc (human, UniProt P16410 37-162, limits assumed); experiment: as above
T2 construct: also called human CTLA4-hFc; CTLA-4-Fc fusion molecule from human; not shown: human Fc (hFc)
T2 sequence: T1 sequence with N13S, T17I, M105L
Description: as §1

[3] = target: T3, human CTLA-4 expressed on cell surface (hCTLA4-overexpressing CHO-K1 cells) (human, UniProt P16410 36-223); experiment: competition flow cytometry (cFACS) on CHO-K1 hCTLA4 cells against a fixed concentration (EC30) of hCD86-hFc; bound ligand detected via its human IgG Fc; MedianFI (PE)
T3 construct: The construct expressed in the cells is not described further; also called huCTLA-4+ CHO-K cells; CTLA-4+ CHO-K1 cells
T3 sequence: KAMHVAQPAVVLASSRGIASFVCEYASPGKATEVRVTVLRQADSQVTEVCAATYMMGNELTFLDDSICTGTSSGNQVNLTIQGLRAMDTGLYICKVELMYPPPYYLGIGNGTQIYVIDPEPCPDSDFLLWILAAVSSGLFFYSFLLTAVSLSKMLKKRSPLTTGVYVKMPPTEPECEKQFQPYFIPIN
Text: (§2) F023700906, a building block of F023700925, as well as F023701051, F023701054 and F023701061 blocked binding of human CTLA-4 to its ligands CD80 and CD86. Flow cytometry analysis of discovery batches of N73X variants (filled squares, filled triangles, filled triangles upside-down) of Nb F023700906 (filled circles) with fixed concentrations (EC30) of (A) hCD80-hFc or (B) hCD86-hFc on hCTLA4-overexpressing CHO-K1 cells. The ligands were detected via the human IgG Fc fusion protein. The flow cytometry data generated in this experiment are in FIG. 10 (A-B).

[4] = target: T3, human CTLA-4 expressed on cell surface …; experiment: competition flow cytometry (cFACS) on CHO-K1 hCTLA4 cells against a fixed concentration (EC30) of hCD80-hFc; bound ligand detected via its human IgG Fc; MedianFI (PE)
Text: as §2

[5] = target: T3, human CTLA-4 expressed on cell surface …; experiment: competition flow cytometry (cFACS) on CHO-K1 hCTLA4 cells against a fixed concentration (EC30) of hCD86-hFc; MedianFI (PE)
[6] = target: T3, human CTLA-4 expressed on cell surface …; experiment: competition flow cytometry (cFACS) on CHO-K1 hCTLA4 cells against a fixed concentration (EC30) of hCD80-hFc; MedianFI (PE)

B1: F023700906 Nanobody, CTLA4 binder 11F01 (L11V,A14P,Q45R,A74S,K83R,V89L,M96P,Q108L)-FLAG3-HIS6 (VHH)
VHH: EVQLVESGGGVVQPGGSLRLSCAASGGTFSFYGMGWFRQAPGKEREFVADIRTSAGRTYYADSVKGRFTISRDNSKNTVYLQMNSLRPEDTALYYCAAEPSGISGWDYWGQGTLVTVSS
notes: also called F02370906; Nb F023700906
[1]
  Kd: 1.2 nM
  koff: 0.0057 s⁻¹
  kon: 4.7e+06 M⁻¹ s⁻¹
[2]
  Kd: 1.2 nM
  koff: 0.0059 s⁻¹
  kon: 4.8e+06 M⁻¹ s⁻¹
[3]
  IC50 (read off the curve): ~2 nM
[4]
  IC50 (read off the curve): ~10 nM
[5]
  IC50 (read off the curve): ~2 nM
[6]
  IC50 (read off the curve): ~10 nM

B2: F023701051 [11F01 (L11V,A14P,Q45R,N73Q,A74S,K83R,V89L,M96P,Q108L)-FLAG3-HIS6] (VHH, name in Kabat numbering)
VHH: B1 VHH with N74Q
notes: N73 is Kabat numbering; also called F02371051
[3]
  IC50 (read off the curve): ~2 nM
[4]
  IC50 (read off the curve): ~10 nM
[5]
  IC50 (read off the curve): ~2 nM
[6]
  IC50 (read off the curve): ~10 nM

B3: F023701054 [11F01 (L11V,A14P,Q45R,N73T,A74S,K83R,V89L,M96P,Q108L)-FLAG3-HIS6] (VHH, name in Kabat numbering)
VHH: B1 VHH with N74T
notes: N73 is Kabat numbering
[3]
  IC50 (read off the curve): ~2 nM
[4]
  IC50 (read off the curve): ~10 nM
[5]
  IC50 (read off the curve): ~2 nM
[6]
  IC50 (read off the curve): ~10 nM

B4: F023701061 [11F01 (L11V,A14P,Q45R,N73Y,A74S,K83R,V89L,M96P,Q108L)-FLAG3-HIS6] (VHH, name in Kabat numbering)
VHH: B1 VHH with N74Y
notes: N73 is Kabat numbering
[3]
  IC50 (read off the curve): ~2 nM
[4]
  IC50 (read off the curve): ~10 nM
[5]
  IC50 (read off the curve): ~2 nM
[6]
  IC50 (read off the curve): ~10 nM

Reference: patent US20170137520A1 (Merck Sharp & Dohme, published 2017)
